Key:
CXCR4 [1] = molecular target: T1, CXCR4 (Homo sapiens, UniProt P61073); assay: CXCR4 degradation assay in HeLa cells; assay type: cell-based; conditions: 80 ng/ml, 3 h, compared to vehicle
T1 construct: purchased Millipore
Experimental: (§1) CXCR4 degradation assay. HeLa cells grown on 6-cm dishes were washed once and incubated with DMEM containing 10% FBS and 50 μg/ml cyclohexamide for 15 min at 37° C. […] Cells were washed once and collected in 300 μl 2× sample buffer. Receptor levels were determined by SDS-PAGE followed by immunoblotting using an anti-CXCR4 antibody. Blots were stripped and reprobed for actin to assess loading. Receptor levels normalized to actin levels were determined by densitometric analysis.
as §1, with “2×sample” for “2× sample”

KG1a cells = assay: Apoptosis assays in KG1a cells expressing CXCR4-YFP; assay type: cell-based, human; conditions: for cleavage of PARP: 100 ng/ml
Experimental: Apoptosis assays. KG1a (human acute myelogenous leukemia) cells were assayed for CXCL12-dependent apoptosis as previously described. Briefly, CXCR4 expression on KG1a cells was achieved via transient transfection with a plasmid encoding a CXCR4-YFP fluorescent fusion protein. […] Apoptosis was assayed by staining cells with APC-conjugated annexin V to detect cell-surface phosphatidyl serine (BD Biosciences) or Alexaflour-647-conjugated antibody to detect cleaved PARP (BD Biosciences), and the percentage of YFP+ cells undergoing apoptosis was determined by flow cytometry.

CXCR4 [2] = molecular target: T1, CXCR4; assay: Confocal microscopy of CXCR4 Ser324/Ser325 phosphorylation in HeLa cells; assay type: cell-based; conditions: HeLa cells with HA-CXCR4-YFP, 80 ng/ml, 15 min
Experimental: Connfocal microscopy. HeLa cells transiently transfected with HA-CXCR4-YFP were passaged onto poly-L-lysine coated coverslips and grown for 24 h. The next day, cells were washed once with warm DMEM containing 20 mM HEPES, pH 7.5, and incubated in the same medium for 3-4 h at 37° C. […] Cells were then fixed with PBS containing 3.7% paraformaldehyde, followed by permeabilization with 0.05% (w/v) saponin for 10 min, similar to a protocol we have described previously. Cells were then incubated with 1% goat serum in 0.05% saponin-PBS for 30 min at 37° C., followed by staining with […] monoclonal antibody that recognizes dually phosphorylated CXCR4 on serine residues 324 and 325 (clone 5E11) (1:50 dilution) for 1 h at 37° C. […] Samples were analyzed using an LSM 510 laser scanning confocal microscope (Carl Zeiss, Thornwood, N.Y.) equipped with a Plan-Apo 63×/1.4 oil lens objective. […] Acquired images were analyzed using ImageJ, version 1.41o software (National Institutes of Health, Bethesda, Md.) and Adobe Photoshop (CS4).
Confocal microscopy. […] Samples were analyzed using an LSM 510 laser scanning confocal microscope (Carl Zeiss, Thornwood, N.Y.) equipped with a Plan-Apo 63×/1.4 oil lens objective. […] Acquired images were analyzed using ImageJ, version 1.410 software (National Institutes of Health, Bethesda, Md.) and Adobe Photoshop (CS4).

CXCR4 [3] = molecular target: T1, CXCR4; assay: CXCR4 ubiquitination assay in HEK293 cells stably expressing HA-CXCR4; assay type: cell-based; conditions: HEK293 HA-CXCR4 with FLAG-ubiquitin, 80 ng/ml, 30 min
Experimental: (§2) CXCR4 ubiquitination assays. HEK293 cells stably expressing HA-CXCR4 grown on 10-cm dishes were transfected with 3 μg FLAG-ubiquitin. The next day, cells were passaged onto 6-cm dishes and allowed to grow for an additional 24 h. […] Cells were then washed once on ice with cold PBS, and collected in 1 ml lysis buffer [50 mM Tris-Cl, pH 7.4, 150 mM NaCl, 5 mM EDTA, 0.5% (w/v) sodium deoxycholate, 1% (v/v) NP-40, 0.1% (w/v) SDS, 20 mM N-ethyCXCL121aleimide (NEM), and 10 μg/ml each of leupeptin, aprotinin, and pepstatin A]. Samples were transferred into microcentrifuge tubes and placed at 4° C. for 30 min, followed by sonification and centrifugation to pellet cellular debris. Clarified cell lysates were incubated with an anti-HA polyclonal and isotype control antibodies and the immunoprecipitates were analyzed by SDS-PAGE followed by immunoblotting using an anti-FLAG antibody conjugated to HRP.
as §2, with “Tris-CI,” for “Tris-Cl,”

T1 sequence (P61073 whole entry): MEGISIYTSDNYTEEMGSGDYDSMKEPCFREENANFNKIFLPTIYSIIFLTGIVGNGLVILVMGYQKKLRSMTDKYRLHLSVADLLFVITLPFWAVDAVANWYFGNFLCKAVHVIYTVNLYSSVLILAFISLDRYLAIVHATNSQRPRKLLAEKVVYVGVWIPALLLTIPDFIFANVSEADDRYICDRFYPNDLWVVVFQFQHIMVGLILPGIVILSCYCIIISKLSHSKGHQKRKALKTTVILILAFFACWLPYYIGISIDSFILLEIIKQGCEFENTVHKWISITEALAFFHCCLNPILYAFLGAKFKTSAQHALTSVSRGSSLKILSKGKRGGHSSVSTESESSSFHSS

Row | Substance | CXCR4 degradation (CXCR4 [1]) | cleavage of PARP (KG1a cells) | EC50 (KG1a cells; 16-18 h, read-out: EC50 of increase in annexin V) [nM] | staining for CXCR4 phosphorylated on Ser324 and Ser325 (CXCR4 [2]) | CXCR4 ubiquitination (CXCR4 [3]) | CXCR4 ubiquitination (CXCR4 [3]; listed as CXCL12) | increase in annexin V (KG1a cells; 16-18 h)
1 | CXCL12WT: wild type CXCL12 (stromal cell-derived factor-1/SDF-1), SEQ ID NO:1 | approximately 60% | significantly greater than CXCL122 | 1.75 ± 0.6 | strong staining | prompted ubiquitin | promoted ubiquitination of CXCR4 | –
2 | CXCL122: constitutively dimeric variant of CXCL12 containing L36C/A65C mutations | ~15% | enhanced the cleavage of PARP | – | weak staining similar to vehicle | failed to promote CXCR4 ubiquitination | – | small but significant increase

Source: patent publication US11369662B2 (The Medical College of Wisconsin, Inc., priority 2014, dated 2022)
